# In the domain aggregation screens of Martell et al. (2025):
# Assay: soluble fraction after stress (log2 fold change); higher = more stays soluble; pooled small domains, quantitative proteomics
# Details: stress: 50 degC
# Summary of the method: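 After stress at 50°C, the amount of each protein still soluble was measured. This was done on pooled custom libraries of small protein domains, using high-throughput quantitative proteomics. The figure given is a base-two log fold change and stands for aggregation propensity, with higher values meaning more protein stays in solution.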
row,Sequence,soluble fraction (log2)
1,HMSMVGSVNKQGRPFALLRVDNLLYQVKVGDYLGQNYGRITQIDETQIALREIVQDAAGEWIERPGVLQL,0.00588
2,HMENSPLTHREAEVMRLMSEGKSNRAISEHLVISEKTVKNHVSSILQKMSVDDRTQAVLQAIKNGWVD,0.23
3,HMDIASNQIQGIKDSVGGDENYSKMVAWALESLPAEEVKAFNDLTETANAPAIKMAVQGLYSQYNNAM,0.264
4,HMPFNLKSLADRLSHVFPGLVKMRDDIGAIIVMDKIKVTEHGVTEGGGLAADRVRAVYNEFIKEY,0.195
5,HMTQTDINQIETLVHEGNKLAAVKLLMDTAHIGLKEAKDIIDNFFLGKQTDLQAAVAQVQTR,0.123
6,HMLADEPTGALDSKTSVQIMALLTEIAQDRLVIMVTHNPELADEYATRIVNLRDGVISDDSDPFNP,-0.079
7,HMLPKAERREQLMAVARSVFAEQGYHTTSMEIIAETAGVSKPLLYQHFPSKLDLYLALLDAGID,-1.56
8,HMGKIINMSKVKQVLRLHTQGVSNRRIALDLGLYKGTVNSYIRKIKDHGYDIAEVLKLDDPVLESKLFA,-0.227
9,HMSRYQDIANDIEKDIIEKKYTRKLPEQFELAQKYQTSRVTIVHALKILQNKKLIRTVKGHGTFITS,-1.4
10,HMKAETILAIPENQPERLFPNNEDEARKIYRDLAREWHTDRNKSPKAQDVFSHLSKLYDIVIDRIKNKTWT,0.152
11,HMKETIIPELLQNELDKNSELNDKFNTFSPYKQREFIEYIITAKQEKTQISRLQKVILMILEGRGLNN,-0.204
12,HMGGAYATVKLSSSSSQLNVRASASTASRVVARLSHGFRVEVLGVSGDWVKIRALGVEGYVARAYLALEGE,-0.374
13,HMILYDDEYKGPRYRYGLHSRPLSPGAVPKGFIIHSDRPHPDFRHGTLDYPVKLPDDRAANFELIFIGEFD,-1.02
14,HMHPFELNTVTEGQLKRLPFLSDLQIRELLEYRSRYGKMLTLYELKNVEAFDLETISLLVPFIYISEI,-1.38
15,HMRELPKRPEIRYAAGDRVFHKAFGNGLVKQVAQTAGGARVTVDFGEGKGVKTFAGDAPMIKI,0.342
16,HMPYSKIALQISHLLKSHGVPLSNKQIYEKLINDFQLSINYSNLTNNILPRMNSDSSINVEKVTRGYWQY,-0.634
17,HMKSPVKLILRGSIYHIKISAVVNGQRIFVRESSHTTDKREAEQYANKRFAQLVEETEFRTN,-1.11
18,HMQHQSGLKSGEFEAISQQLQALLKENPLSLQEIKDKMQVTENHLIKVVSYLVSEEIIRQENGYLK,-0.729
19,HMGAKLTTAQGGTLKVLVKGKKTHTPTIELRDKDPDFPNAKVVQPDINKGNKQIAHGINGVL,0.514
20,HMTDRKRDAIVQAAIGEFREHGFNGTSMDRVAAAADVSKRTVYNHFPSKEELFEAILLLMWE,-2.09
21,HMGKGVDKIMKMADDYSYGKIAGKTVDVMTAKLFQAAYNKAPQKAKDKVDKMNEKQLYIFMMNLWKRF,-0.777
22,HMQQIEIEEPITVKNLSAVAGLKASEIIAKLMKLGVMSTINQVMERQHAEEIAGEYGFELVVK,0.096
23,HMLSGGEVKRIEIATILARKSGLMIFDEPEAGIDLWSFARLVETFEDIRSNTSGSLVIISHQ,0.00488
24,HMGSEISYSEFLNRVEQGQVAAVRLDGEQIFITGPTGEAYQTIQPRNTDVLPDLREAGVEIQAAPQ,-0.0723
25,HMKQDYYSILGVMRDASQEEIKRAYLDAAQRLHPDRNTSAGDTEMFLDVQQAYEVLSNPKRRAQYDATLP,0.148

row,Sequence,soluble fraction (log2)
1,HMSDDAVVRMRVPEDALGLSLRETDFRQRFGVYVLAIETRDGKLLAPPDPQRPLGKDDVLVVIQKR,-0.138
2,HMKLRKINLIGIFGSKTAPSALVRLTNGRVLKVGLGELLDGGRVTAIGRSSLTYNKSGKSITLNMPI,-2.73
3,HMRQPRGQRVTVREASSLLPFLFAHLTDRSRSAVKSLLRHGQIWVNGRVTTHFDMPLRPGDTVLISHERG,-0.347
4,HMPTMEQTYIGRTMIAEEDMGKNSKIKVSGIYWTAYNKGRVIKKGEEYKITGIEGNKLIVSSK,-0.0359
5,HMPELPEVETSRRGIEPHLVGATILHAVVRNGRLRWPVSEEIYRLSDQPVLSVQRRAKYLLLELQA,0.0555
6,HMDLFSAVVHHIVGQQISTKAQATIWKRMRDEFGVVDAAAVLGAGVEKLQSFGMTFRKAEYITDFARKIE,-2.51
7,HMQERNYIVRRGDTLWDLAKTYYGSGTKYTVIYDANRDNIEAEAKRRGKQSSNGGYWIYPGTELTI,-0.368
8,HMITTLLVENLQDVGMRLDHYLVYNLIKYSRSHIQSFIRSGDIRVNGKKVKTGYSLELKDLIHIEMP,-3.75
9,HMGAITGLQSRVAFLKGQGTITDAEAKTAMAFLPDPTDSKEVKIAKIGQAREYIMSLIENRA,-0.106
10,HMLEPEVLDLIGQVKSVHHFSVTQSHQLEKLVRHAHTLGFEIAELKSLLASSPNAKSLLSSLDQKLEPLRM,-0.909
11,HMVSLEEIINDLTSRIQTAVKMRFSDFVQNRKERVGVIVSFLGMLELVKQGIIDIKQEGHFADIEMETA,-0.296
12,HMTFFDDLLYQAKAAVDNDPSIKPSLHNRAIIEILYQQGVFNMKNAVEHVAELLEISKNTVYLHLRSVKG,-0.973
13,HMDEDLQEALRKLNPIQANERKLLLKMLEQHRWNVSSVAKAFDVSRNTLYRRLHKLHIPLSNPSE,-0.417
14,HMKKILLGDVNLDGKVDVNDVTLLQRYIAGETEVITSKDALTATNFNKDGNIDVLDVTDIQTFIANSE,0.0836
15,HMSDGYETLVNMAKPFLNNSKQITENDITDAVNTVSVMLKKRYDMTDEDIRKAVSELLHFYA,-0.057
16,HMPLPLYVQIKESLRGQIFDGTYGEHERLPSENDLMSSFGVSRITVRQALSDLEKEELIFKVPGKGAFVSR,-1.32
17,HMEVPDTIIRLRELVAAMPEQWQKVYRLVFMEGLSKAKAGKKIGISDVRVGQLVKKINAAIAGDETLK,-0.714
18,HMRMNASERQNQIVDLLSQNGVMKIMDIADHFNVSRETIRRDLIILEDDNRIKKWFGGVISAN,-0.461
19,HMSGMEKLAIQEIEKEIKSFVKGDILIELTGKNRATAYVSEKNVGALIGKKGERINSIEKRLGVGIDVRPY,0.00444
20,HMDFSNVNFSQVSDSELDLLMRRASAQGYTQFDLLKIARAQGLTQAEIEKLDKRFKSAETVAYVAENA,0.0939
21,HMKGKIYFFEEGVDRVGGVERVISTLANEFSKKYKVNVISFYKTRKETFFKYNSDIDITYLSK,0.14
22,HMELEDTYTKNLDASLARLDEYQASKGLTDEQVDEVINSLIADAENIIMGVFTPELIDSKLKAMNYDQDV,0.156
23,HMVMATPHNTAKAGDIAKTVIMPGDPLRAKYIADNYLDNAVQFNVVRNIYGYTGVYRGTDISVMASGM,0.128
24,HMEHPNNTELTQKLELGTELMQYGDYNYALKVFNNVIDSDPEWSEAWNKRATVYFLMSQFTDSLSDIDRV,0.32
25,HMIVVMKTSASERDLQEVIARIEQFGFATRSIVGSERATVSVLGAPLPDSLQEALERMPGVEEVVRITK,-0.344
